Experiments:
Assay in all cases: IEDB peptide-MHC binding, purified MHC/competitive/radioactivity; filed as Kd, often an IC50 or EC50 that approximates it; ≥ and ≤ were set here for values at or beyond the usual limits of such assays
HLA-A*02:02 = target: HLA-A*02:02
HLA-A*02:03 = target: HLA-A*02:03
HLA-A*02:06 = target: HLA-A*02:06
HLA-A*31:01 = target: HLA-A*31:01
HLA-A*68:01 = target: HLA-A*68:01
HLA-A*03:01 = target: HLA-A*03:01
HLA-A*11:01 = target: HLA-A*11:01
HLA-A*33:01 = target: HLA-A*33:01
[1] = source organism: Vaccinia virus WR
[2] = source organism: SARS coronavirus Tor2
[3] = source organism: Dengue virus 3 Martinique/1243/1999
[4] = source organism: Mammarenavirus lassaense
[5] = source organism: HIV-1 M:B_ARV2/SF2
[6] = source organism: Mammarenavirus brazilense
[7] = source organism: Lymphocytic choriomeningitis virus (strain Armstrong)

Sequence | Kd (HLA-A*02:02; [1]) | Kd (HLA-A*02:03; [1]) | Kd (HLA-A*02:06; [1]) | other results
AAAATCALV | 14.6 nM | 9.05 nM | 12.5 nM | 
ALALEQYGI | 0.695 nM | 40 nM | 548 nM | 
ATFRDMLLNV | 7.06 nM | 0.398 nM | 3.03 nM | 
AVTLNRIKI | 10800 nM | 3340 nM | 7610 nM | 
DISSFYWSL | 391 nM | 6870 nM | 3970 nM | 
DMLKLFTHDI | 196 nM | 16.1 nM | 2970 nM | 
DVDMDFDLNI | 2030 nM | 1520 nM | 5820 nM | 
EATFIDVHI | 1660 nM | 862 nM | 3430 nM | 
ELLEMKYAL | 952 nM | 863 nM | 6010 nM | 
ELPYVGDTSM | 4130 nM | 14200 nM | ≥ 29900 nM | 
ETMYLTMKAI | 1320 nM | 25.2 nM | 3580 nM | 
ETQSGALEVL | 5310 nM | 14500 nM | 1580 nM | 
FAVGLLFRRL |  |  |  | Kd (HLA-A*02:06; source organism: Dengue virus 1 Brazil/97-11/1997): 20.4 nM
FLMSFTILCL |  |  |  | Kd (HLA-A*02:02; [2]): 0.821 nM; Kd (HLA-A*02:03; [2]): 213 nM; Kd (HLA-A*02:06; [2]): 74.4 nM
FVYVSVMNFI | 76.5 nM | 17.8 nM | 7.5 nM | 
GTIILNKIV | 1190 nM | 3400 nM | 1430 nM | 
GTSAAAYFV |  |  |  | Kd (HLA-A*02:02; [2]): 35.2 nM; Kd (HLA-A*02:03; [2]): 202 nM; Kd (HLA-A*02:06; [2]): 90.5 nM
IAACAMLLV |  |  |  | Kd (HLA-A*02:02; [2]): 320 nM; Kd (HLA-A*02:03; [2]): 387 nM; Kd (HLA-A*02:06; [2]): 131 nM
ILFILFFAYV | 132 nM | 366 nM | 1210 nM | 
ILLILSCIFA | 448 nM | 307 nM | 492 nM | 
IMAFILGIII | 632 nM | 3160 nM | 3190 nM | 
IMFMLIFNV | 0.146 nM | 10.2 nM | 13.1 nM | 
KINPLLDEPL | 53.4 nM | 304 nM | 18.6 nM | 
KLREVYTQL |  |  |  | Kd (HLA-A*02:03; [3]): 39.1 nM
KQIMECSRML | 54.8 nM | ≥ 29600 nM | 59.5 nM | 
KVIKLVKSLV | 14300 nM | 13400 nM | 2140 nM | 
LALWDSNFFT | 11000 nM | 19900 nM | 1250 nM | 

Sequence | Kd (HLA-A*02:02; [1]) | Kd (HLA-A*02:03; [1]) | Kd (HLA-A*02:06; [1]) | other results
LLALNDMGKV |  |  |  | Kd (HLA-A*02:03; [3]): 15 nM
LLEMKYALI | 354 nM | 135 nM | 14900 nM | 
LLKETIQKDI | 3060 nM | 782 nM | ≥ 23400 nM | 
LLMEGLKLLS |  |  |  | Kd (HLA-A*02:02; [4]): 78.3 nM; Kd (HLA-A*02:03; [4]): 39.5 nM; Kd (HLA-A*02:06; [4]): 1750 nM
LMAMDLGEL |  |  |  | Kd (HLA-A*02:03; source organism: Dengue virus 2 Peru/IQT2913/1996): 6.78 nM
LTFGWCFKLV |  |  |  | Kd (HLA-A*02:02; [5]): 910 nM; Kd (HLA-A*02:03; [5]): 167 nM; Kd (HLA-A*02:06; [5]): 20.1 nM
LTHGADPNA | 19400 nM | 10500 nM | ≥ 29400 nM | 
LVIGVAFLAV |  |  |  | Kd (HLA-A*02:02; [2]): 2710 nM; Kd (HLA-A*02:03; [2]): 22.4 nM; Kd (HLA-A*02:06; [2]): 2.6 nM
MAFILGIIIT | 4680 nM | 2830 nM | 10300 nM | 
MMNITRLEVI | 85.4 nM | 26.1 nM | 134 nM | 
MQVFFGYFA |  |  |  | Kd (HLA-A*02:02; [2]): 9.96 nM; Kd (HLA-A*02:03; [2]): 193 nM; Kd (HLA-A*02:06; [2]): 1.04 nM
NCLSLLLSV |  |  |  | Kd (HLA-A*02:02; [4]): 48.7 nM; Kd (HLA-A*02:03; [4]): 437 nM; Kd (HLA-A*02:06; [4]): 630 nM
NIREGTHVLL | 8880 nM | 5510 nM | ≥ 34600 nM | 
PIIYSKAGNI | 654 nM | 139 nM | 728 nM | 
QLEELEDEL |  |  |  | Kd (HLA-A*02:03; source organism: Homo sapiens): ≥ 68400 nM
QLSNNKYVL | 78.5 nM | 4940 nM | 10700 nM | 
RLYDYFTRVT | 2450 nM | 551 nM | 691 nM | 
SILSLETVKM | 203 nM | 455 nM | 806 nM | 
SINITPDDGL | 413 nM | 1230 nM | 0.343 nM | 
SISSVLTIL | 1.25 nM | 3.98 nM | 110 nM | 
SITPNNLNKI | 14900 nM | ≥ 70400 nM | ≥ 69800 nM | 
SLVSAGSGKV |  |  |  | Kd (HLA-A*02:03; [3]): 19.4 nM
SNPNLFWAV |  |  |  | Kd (HLA-A*02:02; [6]): 170 nM; Kd (HLA-A*02:03; [6]): 6150 nM; Kd (HLA-A*02:06; [6]): 34.6 nM
STDVNKQNK |  |  |  | Kd (HLA-A*31:01; [1]): 1180 nM; Kd (HLA-A*68:01; [1]): 290 nM; Kd (HLA-A*03:01; [1]): 8970 nM; Kd (HLA-A*11:01; [1]): 11.9 nM; Kd (HLA-A*33:01; [1]): ≥ 77700 nM
STGNYNYKYR |  |  |  | Kd (HLA-A*31:01; [2]): 34.7 nM; Kd (HLA-A*68:01; [2]): 244 nM; Kd (HLA-A*03:01; [2]): 2760 nM; Kd (HLA-A*11:01; [2]): 1380 nM; Kd (HLA-A*33:01; [2]): 1090 nM
STLLTWHMH |  |  |  | Kd (HLA-A*31:01; [7]): 4490 nM; Kd (HLA-A*68:01; [7]): 2720 nM; Kd (HLA-A*03:01; [7]): ≥ 38200 nM; Kd (HLA-A*11:01; [7]): 258 nM; Kd (HLA-A*33:01; [7]): ≥ 77700 nM

From the Immune Epitope Database (IEDB)
